Source: US5602021

Legend:
[1] = molecular target: pIII coat protein of bacteriophage CA2000 (OMP1) (filamentous bacteriophage (helper phage R408 derivative))
[2] = molecular target: pIII coat protein of bacteriophage CA2000 (OMP2) (filamentous bacteriophage (helper phage R408 derivative))
[3] = molecular target: pIII coat protein of bacteriophage CA2000 (filamentous bacteriophage (helper phage R408 derivative))
[4] = molecular target: pIII coat protein of bacteriophage TARGETBACK (filamentous bacteriophage (helper phage R408 derivative))
[5] = molecular target: pIII coat protein of bacteriophage CA1000 (filamentous bacteriophage (helper phage R408 derivative))
[6] = molecular target: pIII coat protein of bacteriophage CA1051 (filamentous bacteriophage (helper phage R408 derivative))
[7] = molecular target: pIII coat protein of bacteriophage CA2000 (filamentous bacteriophage (helper phage R408 derivative)); remark: listed apart in the source

Substance | infective phage particles (ampicillin resistant transducing units) from OmpT mediated maturation of pIII [1] | infective phage particles (ampicillin resistant transducing units) from OmpT mediated maturation of pIII [2] | infective phage particles (ampicillin resistant transducing units) from OmpT mediated maturation of pIII [3] | infective phage particles (OmR transducing units) [4] | infective phage particles (OmR transducing units) [5] | infective phage particles (OmR transducing units) [6] | infective phage particles (OmR transducing units) [7]
OmpT protease (from UniProt P09169) (enzyme) | 2500 ApR T.U./ml | 18000 ApR T.U./ml | < 50 ApR T.U./ml | – | – | – | –
host encoded leader peptidase (from UniProt P00803) (enzyme) | – | – | – | 1000 OmR T.U./ml | 1e+08 OmR T.U./ml | 30000 OmR T.U./ml | < 50 OmR T.U./ml
